# Assay results reported in the RNAGym collection of RNA variant scans (doi:10.1101/gr.219683.116).
# B1: mRNA-splicing (parent)
# chain: AGUUGCUGCUGGGAGCUCCAGCACAGUGAAAUGGACAGAAGGGCAGAGCAA
# Variants of: B1
# Test: exon inclusion enrichment index; higher = more inclusion; WT1 exon 5 minigene, HEK293
row,Variant,exon inclusion enrichment index
1,AGUUGCUGCUCUGAGCUCCAGCACAGUGAAAUGGACAGAAGGGCAGAGCAA,0.467
2,AGUUGCUGCUUGGAGCUCCAGCACAGUGAAAUGGACAGAAGGGCAGAGCAA,2.22
3,AGUUGCUGCUUAGAGCUCCAGCACAGUGAAAUGGACAGAAGGGCAGAGCAA,0.315
4,AGUUGCUGCUUCGAGCUCCAGCACAGUGAAAUGGACAGAAGGGCAGAGCAA,1.86
5,AGUUGCUGCUUUGAGCUCCAGCACAGUGAAAUGGACAGAAGGGCAGAGCAA,0.755
6,AGUUGCUGCUGAGAGCUCCAGCACAGUGAAAUGGACAGAAGGGCAGAGCAA,1.7
7,AGUUGCUGCUGAAAGCUCCAGCACAGUGAAAUGGACAGAAGGGCAGAGCAA,1.29
8,AGUUGCUGCUGACAGCUCCAGCACAGUGAAAUGGACAGAAGGGCAGAGCAA,1.2
9,AGUUGCUGCUGAUAGCUCCAGCACAGUGAAAUGGACAGAAGGGCAGAGCAA,0.459
10,AGUUGCUGCUGCGAGCUCCAGCACAGUGAAAUGGACAGAAGGGCAGAGCAA,1.58
11,AGUUGCUGCUGCAAGCUCCAGCACAGUGAAAUGGACAGAAGGGCAGAGCAA,1.1
12,AGUUGCUGCUGCCAGCUCCAGCACAGUGAAAUGGACAGAAGGGCAGAGCAA,0.309
13,AGUUGCUGCUGCUAGCUCCAGCACAGUGAAAUGGACAGAAGGGCAGAGCAA,0.237
14,AGUUGCUGCUGUGAGCUCCAGCACAGUGAAAUGGACAGAAGGGCAGAGCAA,0.925
15,AGUUGCUGCUGUAAGCUCCAGCACAGUGAAAUGGACAGAAGGGCAGAGCAA,0.608
16,AGUUGCUGCUGUCAGCUCCAGCACAGUGAAAUGGACAGAAGGGCAGAGCAA,0.721
17,AGUUGCUGCUGUUAGCUCCAGCACAGUGAAAUGGACAGAAGGGCAGAGCAA,0.199
18,AGUUGCUGCUGGAAGCUCCAGCACAGUGAAAUGGACAGAAGGGCAGAGCAA,0.135
19,AGUUGCUGCUGGACGCUCCAGCACAGUGAAAUGGACAGAAGGGCAGAGCAA,0.227
20,AGUUGCUGCUGGAGGCUCCAGCACAGUGAAAUGGACAGAAGGGCAGAGCAA,0.249
21,AGUUGCUGCUGGAUGCUCCAGCACAGUGAAAUGGACAGAAGGGCAGAGCAA,0.0995
22,AGUUGCUGCUGGCAGCUCCAGCACAGUGAAAUGGACAGAAGGGCAGAGCAA,0.0504
23,AGUUGCUGCUGGCCGCUCCAGCACAGUGAAAUGGACAGAAGGGCAGAGCAA,0.19
24,AGUUGCUGCUGGCGGCUCCAGCACAGUGAAAUGGACAGAAGGGCAGAGCAA,0.42
25,AGUUGCUGCUGGCUGCUCCAGCACAGUGAAAUGGACAGAAGGGCAGAGCAA,0.194
26,AGUUGCUGCUGGUAGCUCCAGCACAGUGAAAUGGACAGAAGGGCAGAGCAA,0.0154

row,Variant,exon inclusion enrichment index
1,AGUUGCUGCUGGUCGCUCCAGCACAGUGAAAUGGACAGAAGGGCAGAGCAA,0.0646
2,AGUUGCUGCUGGUGGCUCCAGCACAGUGAAAUGGACAGAAGGGCAGAGCAA,0.0891
3,AGUUGCUGCUGGUUGCUCCAGCACAGUGAAAUGGACAGAAGGGCAGAGCAA,0.0193
4,AGUUGCUGCUGGGCGCUCCAGCACAGUGAAAUGGACAGAAGGGCAGAGCAA,0.099
5,AGUUGCUGCUGGGCACUCCAGCACAGUGAAAUGGACAGAAGGGCAGAGCAA,0.0127
6,AGUUGCUGCUGGGCCCUCCAGCACAGUGAAAUGGACAGAAGGGCAGAGCAA,0.0378
7,AGUUGCUGCUGGGCUCUCCAGCACAGUGAAAUGGACAGAAGGGCAGAGCAA,0.0261
8,AGUUGCUGCUGGGGGCUCCAGCACAGUGAAAUGGACAGAAGGGCAGAGCAA,0.0948
9,AGUUGCUGCUGGGGACUCCAGCACAGUGAAAUGGACAGAAGGGCAGAGCAA,0.102
10,AGUUGCUGCUGGGGCCUCCAGCACAGUGAAAUGGACAGAAGGGCAGAGCAA,0.0893
11,AGUUGCUGCUGGGGUCUCCAGCACAGUGAAAUGGACAGAAGGGCAGAGCAA,0.0597
12,AGUUGCUGCUGGGUGCUCCAGCACAGUGAAAUGGACAGAAGGGCAGAGCAA,0.0353
13,AGUUGCUGCUGGGUACUCCAGCACAGUGAAAUGGACAGAAGGGCAGAGCAA,0.0161
14,AGUUGCUGCUGGGUCCUCCAGCACAGUGAAAUGGACAGAAGGGCAGAGCAA,0.0264
15,AGUUGCUGCUGGGUUCUCCAGCACAGUGAAAUGGACAGAAGGGCAGAGCAA,0.0223
16,AGUUGCUGCUGGGAACUCCAGCACAGUGAAAUGGACAGAAGGGCAGAGCAA,0.048
17,AGUUGCUGCUGGGAAAUCCAGCACAGUGAAAUGGACAGAAGGGCAGAGCAA,0.03
18,AGUUGCUGCUGGGAAGUCCAGCACAGUGAAAUGGACAGAAGGGCAGAGCAA,0.0571
19,AGUUGCUGCUGGGAAUUCCAGCACAGUGAAAUGGACAGAAGGGCAGAGCAA,0.014
20,AGUUGCUGCUGGGACCUCCAGCACAGUGAAAUGGACAGAAGGGCAGAGCAA,0.187
21,AGUUGCUGCUGGGACAUCCAGCACAGUGAAAUGGACAGAAGGGCAGAGCAA,0.0306
22,AGUUGCUGCUGGGACGUCCAGCACAGUGAAAUGGACAGAAGGGCAGAGCAA,0.178
23,AGUUGCUGCUGGGACUUCCAGCACAGUGAAAUGGACAGAAGGGCAGAGCAA,0.0653
24,AGUUGCUGCUGGGAUCUCCAGCACAGUGAAAUGGACAGAAGGGCAGAGCAA,0.0812
25,AGUUGCUGCUGGGAUAUCCAGCACAGUGAAAUGGACAGAAGGGCAGAGCAA,0.0156
26,AGUUGCUGCUGGGAUGUCCAGCACAGUGAAAUGGACAGAAGGGCAGAGCAA,0.0648

row,Variant,exon inclusion enrichment index
1,AGUUGCUGCUGGGAUUUCCAGCACAGUGAAAUGGACAGAAGGGCAGAGCAA,0.0329
2,AGUUGCUGCUGGGAGAUCCAGCACAGUGAAAUGGACAGAAGGGCAGAGCAA,0.0656
3,AGUUGCUGCUGGGAGAACCAGCACAGUGAAAUGGACAGAAGGGCAGAGCAA,0.0497
4,AGUUGCUGCUGGGAGACCCAGCACAGUGAAAUGGACAGAAGGGCAGAGCAA,0.0503
5,AGUUGCUGCUGGGAGAGCCAGCACAGUGAAAUGGACAGAAGGGCAGAGCAA,0.0435
6,AGUUGCUGCUGGGAGGUCCAGCACAGUGAAAUGGACAGAAGGGCAGAGCAA,0.103
7,AGUUGCUGCUGGGAGGACCAGCACAGUGAAAUGGACAGAAGGGCAGAGCAA,0.231
8,AGUUGCUGCUGGGAGGCCCAGCACAGUGAAAUGGACAGAAGGGCAGAGCAA,0.114
9,AGUUGCUGCUGGGAGGGCCAGCACAGUGAAAUGGACAGAAGGGCAGAGCAA,0.0697
10,AGUUGCUGCUGGGAGUUCCAGCACAGUGAAAUGGACAGAAGGGCAGAGCAA,0.0903
11,AGUUGCUGCUGGGAGUACCAGCACAGUGAAAUGGACAGAAGGGCAGAGCAA,0.0567
12,AGUUGCUGCUGGGAGUCCCAGCACAGUGAAAUGGACAGAAGGGCAGAGCAA,0.038
13,AGUUGCUGCUGGGAGUGCCAGCACAGUGAAAUGGACAGAAGGGCAGAGCAA,0.211
14,AGUUGCUGCUGGGAGCACCAGCACAGUGAAAUGGACAGAAGGGCAGAGCAA,0.131
15,AGUUGCUGCUGGGAGCAACAGCACAGUGAAAUGGACAGAAGGGCAGAGCAA,0.314
16,AGUUGCUGCUGGGAGCAGCAGCACAGUGAAAUGGACAGAAGGGCAGAGCAA,0.00663
17,AGUUGCUGCUGGGAGCAUCAGCACAGUGAAAUGGACAGAAGGGCAGAGCAA,1.09
18,AGUUGCUGCUGGGAGCCCCAGCACAGUGAAAUGGACAGAAGGGCAGAGCAA,0.0839
19,AGUUGCUGCUGGGAGCCACAGCACAGUGAAAUGGACAGAAGGGCAGAGCAA,1.29
20,AGUUGCUGCUGGGAGCCGCAGCACAGUGAAAUGGACAGAAGGGCAGAGCAA,0.369
21,AGUUGCUGCUGGGAGCCUCAGCACAGUGAAAUGGACAGAAGGGCAGAGCAA,1.34
22,AGUUGCUGCUGGGAGCGCCAGCACAGUGAAAUGGACAGAAGGGCAGAGCAA,0.247
23,AGUUGCUGCUGGGAGCGACAGCACAGUGAAAUGGACAGAAGGGCAGAGCAA,1.73
24,AGUUGCUGCUGGGAGCGGCAGCACAGUGAAAUGGACAGAAGGGCAGAGCAA,0.0429
25,AGUUGCUGCUGGGAGCGUCAGCACAGUGAAAUGGACAGAAGGGCAGAGCAA,1.5
26,AGUUGCUGCUGGGAGCUACAGCACAGUGAAAUGGACAGAAGGGCAGAGCAA,1.5

row,Variant,exon inclusion enrichment index
1,AGUUGCUGCUGGGAGCUAAAGCACAGUGAAAUGGACAGAAGGGCAGAGCAA,0.547
2,AGUUGCUGCUGGGAGCUAGAGCACAGUGAAAUGGACAGAAGGGCAGAGCAA,0.352
3,AGUUGCUGCUGGGAGCUAUAGCACAGUGAAAUGGACAGAAGGGCAGAGCAA,0.121
4,AGUUGCUGCUGGGAGCUGCAGCACAGUGAAAUGGACAGAAGGGCAGAGCAA,0.287
5,AGUUGCUGCUGGGAGCUGAAGCACAGUGAAAUGGACAGAAGGGCAGAGCAA,2.92
6,AGUUGCUGCUGGGAGCUGGAGCACAGUGAAAUGGACAGAAGGGCAGAGCAA,3.04
7,AGUUGCUGCUGGGAGCUGUAGCACAGUGAAAUGGACAGAAGGGCAGAGCAA,0.777
8,AGUUGCUGCUGGGAGCUUCAGCACAGUGAAAUGGACAGAAGGGCAGAGCAA,1.27
9,AGUUGCUGCUGGGAGCUUAAGCACAGUGAAAUGGACAGAAGGGCAGAGCAA,0.302
10,AGUUGCUGCUGGGAGCUUGAGCACAGUGAAAUGGACAGAAGGGCAGAGCAA,0.995
11,AGUUGCUGCUGGGAGCUUUAGCACAGUGAAAUGGACAGAAGGGCAGAGCAA,0.0838
12,AGUUGCUGCUGGGAGCUCAAGCACAGUGAAAUGGACAGAAGGGCAGAGCAA,1.49
13,AGUUGCUGCUGGGAGCUCACGCACAGUGAAAUGGACAGAAGGGCAGAGCAA,1.81
14,AGUUGCUGCUGGGAGCUCAGGCACAGUGAAAUGGACAGAAGGGCAGAGCAA,0.356
15,AGUUGCUGCUGGGAGCUCAUGCACAGUGAAAUGGACAGAAGGGCAGAGCAA,1.14
16,AGUUGCUGCUGGGAGCUCGAGCACAGUGAAAUGGACAGAAGGGCAGAGCAA,2.42
17,AGUUGCUGCUGGGAGCUCGCGCACAGUGAAAUGGACAGAAGGGCAGAGCAA,2.84
18,AGUUGCUGCUGGGAGCUCGGGCACAGUGAAAUGGACAGAAGGGCAGAGCAA,1.23
19,AGUUGCUGCUGGGAGCUCGUGCACAGUGAAAUGGACAGAAGGGCAGAGCAA,2.21
20,AGUUGCUGCUGGGAGCUCUAGCACAGUGAAAUGGACAGAAGGGCAGAGCAA,0.199
21,AGUUGCUGCUGGGAGCUCUCGCACAGUGAAAUGGACAGAAGGGCAGAGCAA,1.96
22,AGUUGCUGCUGGGAGCUCUGGCACAGUGAAAUGGACAGAAGGGCAGAGCAA,0.684
23,AGUUGCUGCUGGGAGCUCUUGCACAGUGAAAUGGACAGAAGGGCAGAGCAA,1.01
24,AGUUGCUGCUGGGAGCUCCCGCACAGUGAAAUGGACAGAAGGGCAGAGCAA,2.03
